Results published in patent US20120302734A1 (COMMONWEALTH SCIENTIFIC AND INDUSTRIAL RESEARCH ORGANISATION, published 2012).

Biological target: the molecule itself
Assay: dynamic light scattering after SDS removal, against 9.2 nm for the monomeric SDS-protein solution; self-association
Protocol: The AmelF3 honeybee silk protein was expressed into the inclusion bodies of E. coli. AmelF3 inclusion bodies were unfolded using equivalent dry weight of the detergent sodium dodecyl sulphate (SDS) to generate 2-4% monomeric protein solutions. Dynamic light scattering (DLS) measured the hydrodynamic diameter of particles in the protein-detergent solution diluted ten-fold in 100 mM NaCl as 9.2+/−0.1 nm (peak containing 98.2% of particle volume). The diameter of SDS micelles in 3% SDS solutions without protein under the same experimental conditions was a single peak at 5.5+/−0.2 nm. No SDS micelles were detected in the SDS—protein solutions confirming that the majority of the SDS was bound to the protein.
Proteins were refolded by removing SDS using KCl. […] The protein solutions were dialysed against water to reduce salt levels then concentrated by dialysis against PEG8000, resulting in 3-4% protein and 0.2-0.4% SDS concentration.

B1: Honeybee silk protein Xenospira3 (AmelF3), recombinant, without signal peptide (other)
chain: GVEEFKSSATEEVISKNLEVDLLKNVDTSAKRRENGAPVLGKNTLQSLEKIKTSASVNAKAAAVVKASALALAEAYLRASALSAAASAKAAAALKNAQQAQLNAQEKSLAALKAQSEEEAASARANAATAATQSALERAQASSRLATVAQNVASDLQKRTSTKAAAEAAATLRQLQDAERTKWSANAALEVSAAAAAAETKTTASSEAANAAAKKAAAIASDADGAERSASTEAQSAAKIESVAAAEGSANSASEDSRAAQLEASTAARANVAAAVGDGAIIGLGEEAGAAAQLLAQAKALAEVSSKSENIEDKKF
notes: The cloning primer may add an N-terminal Met
binding result: binds
